T1: FLAG-RXRα (human, UniProt P19793 1-462)
T1 construct: mature; in vitro translated; also called F-RXRα
T1 sequence: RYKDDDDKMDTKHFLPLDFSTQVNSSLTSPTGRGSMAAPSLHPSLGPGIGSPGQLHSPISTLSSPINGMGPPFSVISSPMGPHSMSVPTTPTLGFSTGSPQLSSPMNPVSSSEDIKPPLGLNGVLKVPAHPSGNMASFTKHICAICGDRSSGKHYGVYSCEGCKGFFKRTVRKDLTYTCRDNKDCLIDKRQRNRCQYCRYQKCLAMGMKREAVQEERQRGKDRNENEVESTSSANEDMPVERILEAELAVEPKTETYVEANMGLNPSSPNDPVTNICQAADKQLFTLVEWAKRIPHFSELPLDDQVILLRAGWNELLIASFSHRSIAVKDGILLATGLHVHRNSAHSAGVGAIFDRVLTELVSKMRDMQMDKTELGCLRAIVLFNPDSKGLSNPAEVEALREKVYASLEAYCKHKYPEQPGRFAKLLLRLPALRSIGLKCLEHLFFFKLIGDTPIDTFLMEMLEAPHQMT

T2: retinoid x receptor (RXRα) (human, UniProt P19793 1-462)
T2 construct: mature; In vitro translated full length receptor; 35S-labelled in the column and immunoprecipitation experiments
T2 sequence (looked up): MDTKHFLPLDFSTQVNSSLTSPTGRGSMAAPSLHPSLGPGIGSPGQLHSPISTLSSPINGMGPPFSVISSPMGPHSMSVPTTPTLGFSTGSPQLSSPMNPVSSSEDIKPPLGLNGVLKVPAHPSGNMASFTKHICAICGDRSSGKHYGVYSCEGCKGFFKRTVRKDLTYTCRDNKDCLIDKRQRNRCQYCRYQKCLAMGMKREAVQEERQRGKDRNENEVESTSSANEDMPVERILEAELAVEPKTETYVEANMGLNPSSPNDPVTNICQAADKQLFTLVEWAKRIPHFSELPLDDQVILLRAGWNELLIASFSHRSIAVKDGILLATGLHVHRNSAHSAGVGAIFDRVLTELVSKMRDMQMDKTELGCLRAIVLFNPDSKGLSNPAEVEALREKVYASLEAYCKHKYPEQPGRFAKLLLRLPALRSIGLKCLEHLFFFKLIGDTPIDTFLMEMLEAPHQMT

T3: retinoic acid receptor RARα (UniProt P10276 1-462, limits assumed)
T3 construct: mature; In vitro translated
T3 sequence (looked up): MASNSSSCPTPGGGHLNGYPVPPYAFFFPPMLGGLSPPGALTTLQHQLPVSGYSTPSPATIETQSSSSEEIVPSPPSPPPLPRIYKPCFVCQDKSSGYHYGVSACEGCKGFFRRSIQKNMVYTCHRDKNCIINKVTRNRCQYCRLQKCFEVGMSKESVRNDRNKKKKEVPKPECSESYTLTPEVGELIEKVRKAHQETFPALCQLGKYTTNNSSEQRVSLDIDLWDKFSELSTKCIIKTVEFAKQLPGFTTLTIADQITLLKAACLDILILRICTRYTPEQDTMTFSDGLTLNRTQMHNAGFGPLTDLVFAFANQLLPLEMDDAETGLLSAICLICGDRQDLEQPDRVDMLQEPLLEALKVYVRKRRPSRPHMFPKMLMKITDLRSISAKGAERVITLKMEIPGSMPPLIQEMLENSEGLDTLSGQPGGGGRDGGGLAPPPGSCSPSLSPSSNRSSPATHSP

T4: retinoic acid receptor RARβ (UniProt P10826 1-455, limits assumed)
T4 construct: mature; In vitro translated
T4 sequence (looked up): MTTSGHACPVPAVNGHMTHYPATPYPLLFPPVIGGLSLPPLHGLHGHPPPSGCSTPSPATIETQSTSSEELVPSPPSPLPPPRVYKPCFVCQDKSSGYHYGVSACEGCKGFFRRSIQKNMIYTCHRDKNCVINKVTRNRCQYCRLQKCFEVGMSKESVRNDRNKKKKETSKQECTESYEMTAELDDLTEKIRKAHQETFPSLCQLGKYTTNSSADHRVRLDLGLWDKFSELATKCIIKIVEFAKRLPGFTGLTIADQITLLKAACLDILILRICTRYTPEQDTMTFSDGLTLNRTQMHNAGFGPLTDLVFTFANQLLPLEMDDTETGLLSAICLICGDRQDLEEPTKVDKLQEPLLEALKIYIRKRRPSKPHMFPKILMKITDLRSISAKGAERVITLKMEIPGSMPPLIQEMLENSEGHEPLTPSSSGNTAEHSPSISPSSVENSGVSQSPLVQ

T5: retinoic acid receptor RARγ (UniProt P13631 1-454, limits assumed)
T5 construct: mature; In vitro translated
T5 sequence (looked up): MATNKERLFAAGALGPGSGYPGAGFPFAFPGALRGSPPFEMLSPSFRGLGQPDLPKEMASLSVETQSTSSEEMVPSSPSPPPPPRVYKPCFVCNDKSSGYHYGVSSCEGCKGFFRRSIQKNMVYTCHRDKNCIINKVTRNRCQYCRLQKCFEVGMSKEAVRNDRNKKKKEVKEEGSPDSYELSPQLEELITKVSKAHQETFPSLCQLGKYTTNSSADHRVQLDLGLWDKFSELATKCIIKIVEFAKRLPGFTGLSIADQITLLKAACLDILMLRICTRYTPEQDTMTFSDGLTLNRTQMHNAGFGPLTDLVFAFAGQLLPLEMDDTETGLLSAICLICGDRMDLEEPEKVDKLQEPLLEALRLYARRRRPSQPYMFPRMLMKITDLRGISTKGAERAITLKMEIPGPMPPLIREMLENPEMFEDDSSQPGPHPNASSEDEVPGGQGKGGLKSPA

T6: estrogen receptor (ER) (UniProt P03372 1-595, limits assumed)
T6 construct: In vitro translated; 35S-labelled in the column experiment
T6 sequence (looked up): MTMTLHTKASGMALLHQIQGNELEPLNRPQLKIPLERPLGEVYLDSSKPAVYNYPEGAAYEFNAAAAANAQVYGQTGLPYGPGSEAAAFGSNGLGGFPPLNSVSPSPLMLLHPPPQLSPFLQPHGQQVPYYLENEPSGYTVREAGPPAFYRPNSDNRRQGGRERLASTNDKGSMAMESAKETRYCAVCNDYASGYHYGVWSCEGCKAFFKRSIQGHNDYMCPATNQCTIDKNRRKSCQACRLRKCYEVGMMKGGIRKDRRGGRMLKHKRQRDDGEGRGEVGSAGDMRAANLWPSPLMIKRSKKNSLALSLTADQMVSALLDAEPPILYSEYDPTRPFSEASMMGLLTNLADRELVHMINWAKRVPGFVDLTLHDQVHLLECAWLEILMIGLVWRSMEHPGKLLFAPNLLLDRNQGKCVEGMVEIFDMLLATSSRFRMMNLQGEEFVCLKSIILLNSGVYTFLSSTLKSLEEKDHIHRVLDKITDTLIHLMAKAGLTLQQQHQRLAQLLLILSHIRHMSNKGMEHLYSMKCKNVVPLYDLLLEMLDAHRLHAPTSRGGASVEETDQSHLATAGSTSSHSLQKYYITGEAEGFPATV

B1: thyroid hormone receptor TRβ (receptor, human, UniProt P10828 1-461, looked up)
chain: MTPNSMTENGLTAWDKPKHCPDREHDWKLVGMSEACLHRKSHSERRSTLKNEQSSPHLIQTTWTSSIFHLDHDDVNDQSVSSAQTFQTEEKKCKGYIPSYLDKDELCVVCGDKATGYHYRCITCEGCKGFFRRTIQKNLHPSYSCKYEGKCVIDKVTRNQCQECRFKKCIYVGMATDLVLDDSKRLAKRKLIEENREKRRREELQKSIGHKPEPTDEEWELIKTVTEAHVATNAQGSHWKQKRKFLPEDIGQAPIVNAPEGGKVDLEAFSHFTKIITPAITRVVDFAKKLPMFCELPCEDQIILLKGCCMEIMSLRAAVRYDPESETLTLNGEMAVTRGQLKNGGLGVVSDAIFDLGMSLSSFNLDDTEVALLQAVLLMSSDRPGLACVERIEKYQDSFLLAFEHYINYRKHHVTHFWPKLLMKVTDLRMIGACHASRFLHMKVECPTELFPPLFLEVFED
notes: mature; In vitro translated; also called TR-B; c-erb-A-B
B2: RXRαm7 (receptor, human, UniProt P19793 1-462, looked up)
chain: MDTKHFLPLDFSTQVNSSLTSPTGRGSMAAPSLHPSLGPGIGSPGQLHSPISTLSSPINGMGPPFSVISSPMGPHSMSVPTTPTLGFSTGSPQLSSPMNPVSSSEDIKPPLGLNGVLKVPAHPSGNMASFTKHICAICGDRSSGKHYGVYSCEGCKGFFKRTVRKDLTYTCRDNKDCLIDKRQRNRCQYCRYQKCLATGLHVHRNSAHSAGVGAIFDRVLTELVSKMRDMQMDKTELGCLRAIVLFNPDSKGLSNPAEVEALREKVYASLEAYCKHKYPEQPGRFAKLLLRLPALRSIGLKCLEHLFFFKLIGDTPIDTFLMEMLEAPHQMT
notes: In vitro translated deletion mutant
B3: RXRαm2 (receptor, human, UniProt P19793 1-387, looked up)
chain: MDTKHFLPLDFSTQVNSSLTSPTGRGSMAAPSLHPSLGPGIGSPGQLHSPISTLSSPINGMGPPFSVISSPMGPHSMSVPTTPTLGFSTGSPQLSSPMNPVSSSEDIKPPLGLNGVLKVPAHPSGNMASFTKHICAICGDRSSGKHYGVYSCEGCKGFFKRTVRKDLTYTCRDNKDCLIDKRQRNRCQYCRYQKCLAMGMKREAVQEERQRGKDRNENEVESTSSANEDMPVERILEAELAVEPKTETYVEANMGLNPSSPNDPVTNICQAADKQLFTLVEWAKRIPHFSELPLDDQVILLRAGWNELLIASFSHRSIAVKDGILLATGLHVHRNSAHSAGVGAIFDRVLTELVSKMRDMQMDKTELGCLRAIVLFNPDSKGLSNPA
notes: range: lacks the carboxyterminal 75 amino acids; In vitro translated deletion mutant
B4: glutathione S-transferase-RARγ fusion protein (bacterially expressed FLAG-RARγ fusion protein) (other)
chain: RYKDDDDKMATNKERLFAAGALGPGSGYPGAGFPFAFPGALRGSPPFEMLSPSFRGLGQPDLPKEMASLSVETQSTSSEEMVPSSPSPPPPPRVYKPCFVCNDKSSGYHYGVSSCEGCKGFFRRSIQKNMVYTCHRDKNCIINKVTRNRCQYCRLQKCFEVGMSKEAVRNDRNKKKKEVKEEGSPDSYELSPQLEELITKVSKAHQETFPSLCQLGKYTTNSSADHRVQLDLGLWDKFSELATKCIIKIVEFAKRLPGFTGLSIADQITLLKAACLDILMLRICTRYTPEQDTMTFSDGLTLNRTQMHNAGFGPLTDLVFAFAGQLLPLEMDDTETGLLSAICLICGDRMDLEEPEKVDKLQEPLLEALRLYARRRRPSQPYMFPRMLMKITDLRGISTKGAERAITLKMEIPGPMPPLIREMLENPEMFEDDSSQPGPHPNASSEDEVPGGQGKGGLKSPA
notes: mature; FLAG-RARγ cDNA cloned in frame into pGex-2T, expressed in bacteria, purified on glutathione sepharose 4B; also called RARγ-glutathione transferase fusion protein; glutathione transferase-RARγ; not shown: glutathione S-transferase encoded by the expression vector pGEX-2T (Pharmacia); vector linker not described

Legend:
[1] = tested on: RXRα-TRα and RXRα-RARα complexes; experiment: Gel retardation assay of RXRα interaction with TRα or RARα on palindromic TRE; format: binding
FLAG-RXRα = molecular target: T1, FLAG-RXRα; experiment: gel retardation, 32P palindromic TRE, in vitro translated receptors
Experimental: (§1) After incubation at room temperature for 45 minutes, the effect of antibody on slow migrating complexes was analyzed by gel retardation using ^32-labelled palindromic TRE as a probe. As a control, receptor mixtures were also incubated with preimmune serum (NI).
(§2) In vitro translated receptor protein (1 to 5 µl depending on the translation efficiency) was incubated with the ^32P-labeled oligonucleotides in a 20-µl reaction mixture containing 10 mM hepes buffer, pH 7.9, 50 mM KCl, 1 mM DTT, 2.5 mM MgCl, 10% glycerol, and 1 µg of poly(dI-dC) at 25° C. for 20 minutes. In general, relative low receptor concentration was used to obtain the clear effect of heterodimer formation. The reaction mixture was then loaded on a 5% nondenaturing polyacrylamide gel containing 0.5× TBE (1×TBE=0.089 M TRIS-borate, 0.089 M boric acid, and 0.002 M EDTA). […] When antibody was used, 1 µl of the antiserum was incubated with the specific translation products at room temperature for 45 minutes before performing the experiments described above.

[2] = molecular target: T2, retinoid x receptor (RXRα); experiment: as above
Experimental: as §1, §2

[3] = molecular target: T3, retinoic acid receptor RARα; experiment: gel retardation, 32P palindromic TRE (data not shown)
[4] = molecular target: B1; experiment: as above
[5] = molecular target: T4, retinoic acid receptor RARβ; experiment: as above
[6] = molecular target: T5, retinoic acid receptor RARγ; experiment: gel retardation, 32P palindromic TRE, in vitro translated receptors
Experimental: as §1, §2

estrogen receptor (ER) = molecular target: T6, estrogen receptor (ER); experiment: glutathione sepharose affinity column, 35S-labelled ER, no DNA

Molecule | binding result [3] | binding result [4] | binding result [5] | binding result [6] | other results
N[C@@H](Cc1cc(I)c(Oc2ccc(O)c(I)c2)c(I)c1)C(=O)O [T3] | – | – | – | – | effect on migration rate of the TRα complex ([1]; T3 10^−7 M): slightly increases the migration rate; influence of hormone on formation of slow migrating complexes ([1]; hormone 10^−7 M, TRα and RARα with RXRα): no clear influence
B1 | – | – | – | – | binding result (FLAG-RXRα): binds; binding result [2]: binds
B2 | no binding | no binding | no binding | no binding | –
B3 | no binding | no binding | no binding | no binding | –
B4 | – | – | – | – | binding result (estrogen receptor (ER)): no binding

Reference: patent publication US7098310B1, “Heterodimers of retinoid X receptors (RXRS) and other steroid hormone receptors” (Ligand Pharmaceuticals, priority 1991, dated 2006)
